{
  "source": "patent US12589171B2",
  "about": "“177-Lu labeled peptide for site-specific uPAR-targeting” (priority 2012, dated 2026)",
  "test": "in vivo",
  "set-up": "species or system NMRI nude mice",
  "settings": "female, NMRI nude, mouse, iv, total radioactivity",
  "method": "For PET/CT imaging, one mouse was injected with ^64Cu-DOTA-AE105 and scanned 1 h post injection. Gamma planar imaging was performed on another mouse 1 h post injection of ^177Lu-DOTA-AE105. Quantitative data were based on manual drawings of region-of-interest analyses on PET/CT data and from analyzed whole tumor tissue using a gamma-counter for planar data. A. Representative images after PET/CT (left) and Gamma planar (right) imaging of HT-29 tumor xenograft. White arrows indicate tumor xenograft. B. […] Quantitative tumor uptake data is presented as % ID/g±SEM based on three animals. Ten min static PET scans were acquired with a microPET Focus 120 scanner (Siemens Medical Solutions, Malvern, PA) 1 hr post i.v. injection of approximately 10 MBq of either ^64Cu-DOTA-AE105 or ^18F-FLT during sevoflurane anesthesia. All PET/CT settings were used as described in detail previously. All results were analyzed using Inveon software (Siemens Medical Solutions) and PET data was expressed as percent of injected dose per gram tissue (% ID/g), with CT-data expressed as cubic millimeters (mm^3). […] This is illustrated in FIG. 2A (left), where a colorectal HT-29 tumor bearing mouse was PET/CT scanned using ^64Cu-DOTA-AE105. […] In FIG. 2A (right) is a representative planar image of a HT-29 tumor bearing mice after injection of ^177Lu-DOTA-AE105.",
  "data": [
    {"smiles": "CC(C)C[C@H](NC(=O)[C@H](Cc1ccc(O)cc1)NC(=O)[C@@H](CCCNC(=N)N)NC(=O)[C@@H](CO)NC(=O)[C@H](Cc1ccccc1)NC(=O)[C@H](CC1CCCCC1)NC(=O)[C@H](CC(=O)O)NC(=O)CN1CCN(CC(=O)O)CCN(CC(=O)O)CCN(CC(=O)O)CC1)C(=O)N[C@@H](Cc1c[nH]c2ccccc12)C(=O)N[C@@H](CO)C(N)=O", "note": "[^64Cu-DOTA-AE105, metal not drawn]", "values": [
      {"measurement": "tissue uptake at 1 h", "result": "0.86 ± 0.03", "unit": "%ID/g"}
    ]}
  ]
}
